Starred links: 1 amine or outer side, 2 acyl side, 3 side chain; linkers in the order of their positions; H or OH if unused. Non-standard residues stand in square brackets, D forms with d. Groups on a side chain read outwards from the residue. *: point of attachment. C18 diacid = O=C(O)CCCCCCCCCCCCCCCCC(=O)*; γGlu = O=C(O)[C@H](CCC(=O)[*:2])N[*:1]; Glutaryl = O=C(CCCC(=O)[*:2])[*:1]; Nle = CCCC[C@H](N)C(=O)O; AEEA = NCCOCCOCC(=O)O; Aib = CC(C)(N)C(=O)O
T1: human GIP receptor (human, UniProt P48546 22-466)
T1 sequence (looked up): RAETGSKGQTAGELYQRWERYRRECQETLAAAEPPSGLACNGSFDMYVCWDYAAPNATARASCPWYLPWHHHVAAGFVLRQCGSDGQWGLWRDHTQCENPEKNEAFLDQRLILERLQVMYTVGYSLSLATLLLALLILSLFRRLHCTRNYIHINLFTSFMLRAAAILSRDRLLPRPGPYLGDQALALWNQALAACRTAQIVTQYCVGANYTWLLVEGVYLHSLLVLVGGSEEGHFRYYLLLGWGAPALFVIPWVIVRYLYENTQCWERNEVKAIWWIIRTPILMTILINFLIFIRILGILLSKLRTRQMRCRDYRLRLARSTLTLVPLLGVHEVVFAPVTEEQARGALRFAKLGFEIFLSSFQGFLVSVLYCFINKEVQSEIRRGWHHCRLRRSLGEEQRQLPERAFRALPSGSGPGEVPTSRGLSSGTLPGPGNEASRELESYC

B1: AT705 (peptide)
peptide: Glutaryl-GTFISEYSI[Aib]LEKIK([AEEA-AEEA-γGlu-C18 diacid])QQEFVEWLLAQKPSSGAPPPS-OH
SMILES: CC[C@H](C)[C@H](NC(=O)[C@H](CCCCN)NC(=O)[C@H](CCC(=O)O)NC(=O)[C@H](CC(C)C)NC(=O)C(C)(C)NC(=O)[C@@H](NC(=O)[C@H](CO)NC(=O)[C@H](Cc1ccc(O)cc1)NC(=O)[C@H](CCC(=O)O)NC(=O)[C@H](CO)NC(=O)[C@@H](NC(=O)[C@H](Cc1ccccc1)NC(=O)[C@@H](NC(=O)CNC(=O)CCCC(=O)O)[C@@H](C)O)[C@@H](C)CC)[C@@H](C)CC)C(=O)N[C@@H](CCCCNC(=O)COCCOCCNC(=O)COCCOCCNC(=O)CC[C@H](NC(=O)CCCCCCCCCCCCCCCCC(=O)O)C(=O)O)C(=O)N[C@@H](CCC(N)=O)C(=O)N[C@@H](CCC(N)=O)C(=O)N[C@@H](CCC(=O)O)C(=O)N[C@@H](Cc1ccccc1)C(=O)N[C@H](C(=O)N[C@@H](CCC(=O)O)C(=O)N[C@@H](Cc1c[nH]c2ccccc12)C(=O)N[C@@H](CC(C)C)C(=O)N[C@@H](CC(C)C)C(=O)N[C@@H](C)C(=O)N[C@@H](CCC(N)=O)C(=O)N[C@@H](CCCCN)C(=O)N1CCC[C@H]1C(=O)N[C@@H](CO)C(=O)N[C@@H](CO)C(=O)NCC(=O)N[C@@H](C)C(=O)N1CCC[C@H]1C(=O)N1CCC[C@H]1C(=O)N1CCC[C@H]1C(=O)N[C@@H](CO)C(=O)O)C(C)C
B2: AT706 (peptide)
peptide: Glutaryl-GTFISEYSI[Aib][Nle]EKIK([AEEA-AEEA-γGlu-C18 diacid])QQEFVEWLLAQKPSSGAPPPS-OH
SMILES: CCCC[C@H](NC(=O)C(C)(C)NC(=O)[C@@H](NC(=O)[C@H](CO)NC(=O)[C@H](Cc1ccc(O)cc1)NC(=O)[C@H](CCC(=O)O)NC(=O)[C@H](CO)NC(=O)[C@@H](NC(=O)[C@H](Cc1ccccc1)NC(=O)[C@@H](NC(=O)CNC(=O)CCCC(=O)O)[C@@H](C)O)[C@@H](C)CC)[C@@H](C)CC)C(=O)N[C@@H](CCC(=O)O)C(=O)N[C@@H](CCCCN)C(=O)N[C@H](C(=O)N[C@@H](CCCCNC(=O)COCCOCCNC(=O)COCCOCCNC(=O)CC[C@H](NC(=O)CCCCCCCCCCCCCCCCC(=O)O)C(=O)O)C(=O)N[C@@H](CCC(N)=O)C(=O)N[C@@H](CCC(N)=O)C(=O)N[C@@H](CCC(=O)O)C(=O)N[C@@H](Cc1ccccc1)C(=O)N[C@H](C(=O)N[C@@H](CCC(=O)O)C(=O)N[C@@H](Cc1c[nH]c2ccccc12)C(=O)N[C@@H](CC(C)C)C(=O)N[C@@H](CC(C)C)C(=O)N[C@@H](C)C(=O)N[C@@H](CCC(N)=O)C(=O)N[C@@H](CCCCN)C(=O)N1CCC[C@H]1C(=O)N[C@@H](CO)C(=O)N[C@@H](CO)C(=O)NCC(=O)N[C@@H](C)C(=O)N1CCC[C@H]1C(=O)N1CCC[C@H]1C(=O)N1CCC[C@H]1C(=O)N[C@@H](CO)C(=O)O)C(C)C)[C@@H](C)CC

Biological target: T1, human GIP receptor
Test: cell-based or functional assay

| Binder | nM (Kb, Gaddum assay, cAMP) | pKb (Gaddum assay, cAMP) |
| --- | --- | --- |
| B1 | 0.23 nM | 9.6 |
| B2 | 0.26 nM | 9.6 |

Source: patent US20230416330A1, “Optimized GIP Peptide Analogues” (Antag Therapeutics ApS, priority 2019, published 2023)
